According to patent US7078233:

Target: T1, 6-methylsalicylic acid synthase (6-MSAS) from Penicillium patulum, P22367
T1 chain: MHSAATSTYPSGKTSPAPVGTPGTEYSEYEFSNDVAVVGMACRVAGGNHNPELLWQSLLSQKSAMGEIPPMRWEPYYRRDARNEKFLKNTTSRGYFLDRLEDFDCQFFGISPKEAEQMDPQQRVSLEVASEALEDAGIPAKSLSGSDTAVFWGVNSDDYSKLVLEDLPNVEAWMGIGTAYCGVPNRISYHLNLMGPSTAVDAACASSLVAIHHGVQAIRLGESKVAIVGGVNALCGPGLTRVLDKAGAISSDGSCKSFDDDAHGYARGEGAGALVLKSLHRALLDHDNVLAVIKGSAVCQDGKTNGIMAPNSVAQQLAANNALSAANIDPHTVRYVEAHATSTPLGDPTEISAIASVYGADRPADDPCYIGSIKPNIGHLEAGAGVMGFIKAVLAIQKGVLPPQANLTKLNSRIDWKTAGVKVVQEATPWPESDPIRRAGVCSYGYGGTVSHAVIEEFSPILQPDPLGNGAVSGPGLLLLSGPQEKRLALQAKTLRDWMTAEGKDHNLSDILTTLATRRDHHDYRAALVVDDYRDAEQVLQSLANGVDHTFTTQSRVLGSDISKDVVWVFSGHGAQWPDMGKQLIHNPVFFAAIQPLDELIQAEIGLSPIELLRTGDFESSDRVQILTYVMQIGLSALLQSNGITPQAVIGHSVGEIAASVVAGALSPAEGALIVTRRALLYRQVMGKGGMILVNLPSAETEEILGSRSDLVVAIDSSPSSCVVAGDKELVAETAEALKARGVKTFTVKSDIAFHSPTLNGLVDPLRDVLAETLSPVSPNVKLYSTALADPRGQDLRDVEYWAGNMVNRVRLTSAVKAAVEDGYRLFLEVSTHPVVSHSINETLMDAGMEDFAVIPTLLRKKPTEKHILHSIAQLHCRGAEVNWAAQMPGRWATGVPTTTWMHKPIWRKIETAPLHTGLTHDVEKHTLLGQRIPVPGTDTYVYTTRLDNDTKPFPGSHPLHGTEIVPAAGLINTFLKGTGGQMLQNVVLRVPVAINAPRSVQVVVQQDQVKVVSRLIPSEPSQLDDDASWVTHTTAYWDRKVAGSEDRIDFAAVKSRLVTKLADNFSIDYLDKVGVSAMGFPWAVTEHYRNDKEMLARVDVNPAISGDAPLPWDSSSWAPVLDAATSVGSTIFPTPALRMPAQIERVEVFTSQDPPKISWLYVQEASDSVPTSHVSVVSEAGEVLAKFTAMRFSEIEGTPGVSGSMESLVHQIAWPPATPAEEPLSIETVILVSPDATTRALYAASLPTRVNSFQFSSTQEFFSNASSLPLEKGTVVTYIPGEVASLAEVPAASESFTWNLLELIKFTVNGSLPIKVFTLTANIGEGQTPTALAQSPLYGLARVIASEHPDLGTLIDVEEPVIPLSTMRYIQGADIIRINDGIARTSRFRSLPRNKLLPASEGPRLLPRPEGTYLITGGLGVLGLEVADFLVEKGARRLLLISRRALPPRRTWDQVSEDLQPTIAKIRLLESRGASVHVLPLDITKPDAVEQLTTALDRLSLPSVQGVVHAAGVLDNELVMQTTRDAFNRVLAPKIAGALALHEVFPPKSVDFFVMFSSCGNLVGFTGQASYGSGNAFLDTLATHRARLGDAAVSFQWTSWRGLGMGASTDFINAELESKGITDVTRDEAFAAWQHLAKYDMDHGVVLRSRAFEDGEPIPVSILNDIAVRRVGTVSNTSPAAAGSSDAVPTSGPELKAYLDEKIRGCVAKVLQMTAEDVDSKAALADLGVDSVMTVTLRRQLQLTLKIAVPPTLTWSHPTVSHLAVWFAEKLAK

B1: Bacillus subtilis surfactin holo ACP synthase (sfp) (protein)
chain: MKIYGIYMDRPLSQEENERFMSFISPEKREKCRRFYHKEDAHRTLLGDVLVRSVISRQYQLDKSDIRFSTQEYGKPCIPDLPDAHFNISHSGRWVICAFDSQPIGIDIEKTKPISLEIAKRFFSKTEYSDLLAKDKDEQTDYFYHLWSMKESFIKQEGKGLSLPLDSFSVRLHQDGQVSIELPDSHSPCYIKTYEVDPGYKMAVCAAHPDFPEDITMVSYEELL
radioactivity from labeled beta-alanine in the 190 kD 6-MSAS band on SDS-PAGE, E. coli SJ16 cotransformed with plasmids 108 (sfp) and 109 (6-MSAS): a detectable amount of radioactivity was found in the 190 kD 6-MSAS band
